The target in this experiment is T1, CD3 (UniProt P07766 23-207).
T1 construct: whole, on cells; on cells it stands in the TCR/CD3 complex; also called CD3 on Jurkat cells
Briefly: flow cytometry, serial dilution on Jurkat cells (CD3-expressing), PE anti-human Fc detection, n = 1. The procedure:
Trivalent, trispecific antibodies were analyzed for their binding to tumor cell lines with different EGFR- and HER3-expression levels (Table 14) by flow cytometry. Adherent cells were washed with PBS and shortly trypsinized at 37° C. Trypsin was quenched with FCS-containing medium and removed by centrifugation (500×g, 5 min.). 1×10⁵ target cells/well (FaDu, LIM1215, SKBR-3, T-47-D, MCF-7 and Jurkat cells) were incubated with a serial dilution of trivalent, trispecific antibodies for 1 h at 4° C. After removing excess of recombinant protein by washing with PBA (PBS, 2% FBS, and 0.02% sodium azide), bound protein was detected using PE-conjugated anti-human Fc mAb (Jackson ImmunoResearch Laboratories Inc). Fluorescence was measured using MACSquant VYB (Miltenyi Biotec) and data were analyzed using FlowJo (Tree Star). Relative median fluorescence intensities (MFI) were calculated as followed: relative MFI=((MFIₛₐₘₚₗₑ-(MFIdetection-MFIcells))/MFIcells).

B1: scDb/scFv-Fc (1-2)+3, trivalent trispecific anti-EGFRxanti-HER3×anti-CD3 (other)
chain 1: QVQLQQSGPGLVKPSQTLSLTCAISGDSVSSNRAAWNWIRQSPSRGLEWLGRTYYRSKWYNDYAQSLKSRITINPDTPKNQFSLQLNSVTPEDTAVYYCARDGQLGLDALDIWGQGTMVTVSSGGGGSDIQMTQSPSSLSASVGDRVTITCRASQDIRNYLNWYQQKPGKAPKLLIYYTSRLHSGVPSRFSGSGSGTDFTFTISSLQPEDIATYYCQQGNTLPWTFGQGTKLEIKRGGGGSGGGGSGGGGSQVQLVQSGAEVKKPGSSVKVSCKASGGTFSGYTMNWVRQAPGQGLEWMGLINPYKGVSTYNGKFKDRVTITADKSTSTAYMELSSLRSEDTAVYYCARSGYYGDSDWYFDVWGQGTLVTVSSGGGGSQAGLTQPPAVSVAPGQTASITCGRDNIGSRSVHWYQQKPGQAPVLVVYDDSDRPAGIPERFSGSNYENTATLTISRVEAGDEADYYCQVWGITSDHVVFGGGTKLTVLAAADKTHTCPPCPAPPVAGPSVFLFPPKPKDTLMISRTPEVTCVVVDVSHEDPEVKFNWYVDGVEVHNAKTKPREEQYNSTYRVVSVLTVLHQDWLNGKEYKCKVSNKGLPSSIEKTISKAKGQPREPQVCTLPPSRDELTKNQVSLSCAVKGFYPSDIAVEWESNGQPENNYKTTPPVLDSDGSFFLVSKLTVDKSRWQQGNVFSCSVMHEALHNHYTQKSLSLSPGK
chain 2: EVQLVESGGGLVQPGGSLRLSCAASGFSLTNYGVHWVRQAPGKGLEWLGVIWSGGNTDYNTPFTSRFTISRDNSKNTLYLQMNSLRAEDTAVYYCARALTYYDYEFAYWGQGTTVTVSSGGGGSGGGGSGGGGSDIQLTQSPSFLSASVGDRVTITCRASQSIGTNIHWYQQKPGKAPKLLIKYASESISGVPSRFSGSGSGTEFTLTISSLQPEDFATYYCQQNNNWPTTFGAGTKLEIKRAAADKTHTCPPCPAPPVAGPSVFLFPPKPKDTLMISRTPEVTCVVVDVSHEDPEVKFNWYVDGVEVHNAKTKPREEQYNSTYRVVSVLTVLHQDWLNGKEYKCKVSNKGLPSSIEKTISKAKGQPREPQVYTLPPCRDELTKNQVSLWCLVKGFYPSDIAVEWESNGQPENNYKTTPPVLDSDGSFFLYSKLTVDKSRWQQGNVFSCSVMHEALHNHYTQKSLSLSPGK
notes: Trispecific antibody: 1 = HER3 (3-43), 2 = CD3 (huU3), 3 = EGFR (hu225); also called scDb3-43xhuU3-Fc(hole)Δab + scFvhu225-Fc(knob)Δab
Molecule B1 returned an EC50 of 1.6 nM.

B2: scDb/Fab-Fc (1-2)+3, trivalent trispecific anti-EGFRxanti-HER3×anti-CD3 (other)
chain: B1 chain 1
heavy: EVQLVESGGGLVQPGGSLRLSCAASGFSLTNYGVHWVRQAPGKGLEWLGVIWSGGNTDYNTPFTSRFTISRDNSKNTLYLQMNSLRAEDTAVYYCARALTYYDYEFAYWGQGTTVTVSSASTKGPSVFPLAPSSKSTSGGTAALGCLVKDYFPEPVTVSWNSGALTSGVHTFPAVLQSSGLYSLSSVVTVPSSSLGTQTYICNVNHKPSNTKVDKKVEPKSCGTDKTHTCPPCPAPPVAGPSVFLFPPKPKDTLMISRTPEVTCVVVDVSHEDPEVKFNWYVDGVEVHNAKTKPREEQYNSTYRVVSVLTVLHQDWLNGKEYKCKVSNKGLPSSIEKTISKAKGQPREPQVYTLPPCRDELTKNQVSLWCLVKGFYPSDIAVEWESNGQPENNYKTTPPVLDSDGSFFLYSKLTVDKSRWQQGNVFSCSVMHEALHNHYTQKSLSLSPGK
light: DIQLTQSPSFLSASVGDRVTITCRASQSIGTNIHWYQQKPGKAPKLLIKYASESISGVPSRFSGSGSGTEFTLTISSLQPEDFATYYCQQNNNWPTTFGAGTKLEIKRTVAAPSVFIFPPSDEQLKSGTASVVCLLNNFYPREAKVQWKVDNALQSGNSQESVTEQDSKDSTYSLSSTLTLSKADYEKHKVYACEVTHQGLSSPVTKSFNRGEC
notes: Trispecific antibody: 1 = HER3, 2 = CD3, 3 = EGFR; also called scDb3-43xhuU3-Fc(hole)Δab + Fdhu225-Fc(knob)Δab + VLhu225-CLκ
In the case of B2, the midpoint of the response, the EC50, lay at 0.8 nM.

(Values after US20220396635A1 (UNIVERSIT T STUTTGART, published 2022).)
